Legend:
Format in all cases: physicochemical
[1] = Rheological properties of pH adjusted peptide solutions and hydrogels; details: KLD12 1%, IEIK13 1%, PuraMatrix® 1% and 2.5%
Protocol: Based on the visual observation of the effect of pH level on the properties of the peptide solutions, the effect on the rheological properties of the peptide solutions after adjusting their pH level to 3.4 (PuraMatrix® and KLD12) or 3.7 (IEIK13) was evaluated. If the pH levels of peptide solutions are higher than 3.5 (PuraMatrix® and KLD12) or 3.7 (IEIK13), the peptide solution began phase separation becoming cloudy. The rheological properties of PuraMatrix®, KLD12 and IEIK13 solutions were higher at pH 3.4. The results are shown in FIG. 2 for KLD12 1%, FIG. 3 for IEIK13 1%, and FIGS. 4-5 for PuraMatrix® 1% and 2.5%, respectively. Stress sweep tests were performed at 10 rad/s. Frequency sweep tests were performed at 1 Pa.
Based on the results of the effect on the rheological properties of the peptide solutions after adjusting their pH level to 3.4 (PuraMatrix® and KLD12) or 3.7 (IEIK13), the effect on the rheological properties of the peptide solutions at various pH levels was evaluated. […] The rheological properties of peptides were evaluated at various concentrations using a rheometer (DHR-1, TA Instruments) with 20 mm plates. The results are shown in FIG. 6A for PuraMatrix® 2.5% solution and FIG. 6B for IEIK13 1.5% solution, respectively. Frequency sweep tests were performed from 1 rad/sec to 10 rad/sec at 1 Pa and the storage modulus at 1 rad/sec was selected for data.
Based on the results of the effect on the rheological properties of the peptide solutions after adjusting their pH level, the effect on the rheological properties of the peptide hydrogels at various pH after DMEM treatment was evaluated and compared to the effect on the rheological properties of the peptide solutions at various pH before DMEM treatment. […] The results are shown in FIGS. 7A-7B for PuraMatrix® and FIGS. 8A-8B for IEIK (SEQ ID NO: 5), respectively. Frequency sweep tests were performed from 1 rad/sec to 10 rad/sec at 1 Pa and the storage modulus at 1 rad/sec was selected for data.

[2] = Appearance of 1.5% peptide solutions with various salts at room temperature; details: for Appearance: IEIK13 solution, room temperature
Protocol: The effect of salt ionic strength level on the properties of peptide solutions was evaluated to identify optimized salt ionic strength levels for the peptides as described herein. Increasing the salt ionic strength level of PuraMatrix® and other peptides may generally improve its function and mechanical strength for various clinical applications. To adjust the salt ionic strength of the peptide solutions by way of example, various salt buffer solutions including NaCl, KCl, MgCl2, CaCl2 and DPBS (10×) were added to 2 mL of 1.5% peptide solutions.

[3] = Gelation of peptide solutions after saline buffer treatment, time sweep; details: saline buffer (0.15 M of NaCl); IEIK13 1.5%, KLD12 1.5%, PuraMatrix® 2.5% solution
Protocol: The effect of salt ionic strength level surrounding peptide solution on the properties of peptide solutions was evaluated to identify the possibility of peptide gelation when the peptide solution is placed into the environment where salt ionic strength level is high. […] Without pH effect, the effect of saline treatment on gelation of peptide solutions were evaluated. […] This is because IEIK13 is much more sensitive to salt ionic strength levels. Fast gelation of IEIK13 at the salt ionic strength level similar to body fluid isotonic salt level may generally improve its function and gelation speed for various clinical applications. The results are shown in FIG. 19 for IEIK13, KLD12 and PuraMatrix® solutions. Time sweep tests were performed at 1 rad/sec and at 1 Pa with 20 mm plates and 500 μm gap distance. […]

[4] = pH and appearance of 2.5% peptide solutions after adding 0.1 N NaOH
Protocol: To adjust the pH level of the peptide solutions by way of example, 0.1 N NaOH was added to 2 mL of 2.5% peptide solutions and their pH and appearance were measured.

With “Ile-Glu-Ile-Lys-Ile-Glu-Ile-Lys-Ile-Glu-Ile-Lys-Ile [IEIK13]” as the substance, how does the “rheological properties of solutions at pH 3.4” value [1] read?
Its value is “higher”.

What about the Appearance ([2]; conc. 1.16%, KCl 0.045 M, ionic strength 0.045 M) of the same substance?
The Appearance was “Cloudy, phase-separated”.

And the Appearance ([2]; conc. 1.2%, KCl 0.04 M, ionic strength 0.04 M)?
Its Appearance is “Slightly cloudy, brittle”.

What about the Appearance ([2]; conc. 1.2%, NaCl 0.04 M, ionic strength 0.04 M) of the same substance?
Its Appearance is “Cloudy, phase-separated”.

What about the Appearance ([2]; conc. 1.24%, KCl 0.035 M, ionic strength 0.035 M) of the same substance?
Its Appearance is “Slightly cloudy, brittle gel”.

What about the Appearance ([2]; conc. 1.24%, NaCl 0.035 M, ionic strength 0.035 M) of the same substance?
The Appearance was “Slightly cloudy, brittle gel”.

What about the Appearance ([2]; conc. 1.27%, KCl 0.03 M, ionic strength 0.03 M) of the same substance?
Its Appearance is “Clear, thick, stiffer gel”.

What about the Appearance ([2]; conc. 1.27%, NaCl 0.03 M, ionic strength 0.03 M) of the same substance?
The Appearance was “Slightly cloudy, thick, stiffer gel”.

What about the Appearance ([2]; conc. 1.31%, KCl 0.025 M, ionic strength 0.025 M) of the same substance?
The Appearance was “Clear, thick, stiffer gel”.

What about the Appearance ([2]; conc. 1.31%, NaCl 0.025 M, ionic strength 0.025 M) of the same substance?
Its Appearance is “Clear, thick, stiffer gel”.

What about the Appearance ([2]; conc. 1.35%, KCl 0.02 M, ionic strength 0.02 M) of the same substance?
Its Appearance is “Clear, thick, stiffer gel”.

And the Appearance ([2]; conc. 1.35%, NaCl 0.02 M, ionic strength 0.02 M)?
The Appearance was “Clear, thick, stiffer gel”.

What about the Appearance ([2]; conc. 1.36%, CaCl2 0.0183 M, ionic strength 0.055 M) of the same substance?
Its Appearance is “Cloudy, phase-separated”.

What about the Appearance ([2]; conc. 1.36%, MgCl2 0.0183 M, ionic strength 0.055 M) of the same substance?
Its Appearance is “Cloudy, phase-separated”.

What about the Appearance ([2]; conc. 1.37%, CaCl2 0.0167 M, ionic strength 0.05 M) of the same substance?
Its Appearance is “Slightly cloudy, brittle gel”.

And the Appearance ([2]; conc. 1.37%, MgCl2 0.0167 M, ionic strength 0.05 M)?
The Appearance was “Slightly cloudy, brittle gel”.

And the Appearance ([2]; conc. 1.39%, CaCl2 0.015 M, ionic strength 0.045 M)?
Its Appearance is “Slightly cloudy, thick, stiffer gel”.

And the Appearance ([2]; conc. 1.39%, KCl 0.015 M, ionic strength 0.015 M)?
The Appearance was “Clear, thick, stiffer gel”.

What about the Appearance ([2]; conc. 1.39%, MgCl2 0.015 M, ionic strength 0.045 M) of the same substance?
The Appearance was “Slightly cloudy, stiffer gel”.

What about the Appearance ([2]; conc. 1.39%, NaCl 0.015 M, ionic strength 0.015 M) of the same substance?
The Appearance was “Clear, thick, stiffer gel”.

And the Appearance ([2]; conc. 1.40%, CaCl2 0.0133 M, ionic strength 0.04 M)?
The Appearance was “Slightly cloudy, thick, stiffer gel”.

What about the Appearance ([2]; conc. 1.40%, MgCl2 0.0133 M, ionic strength 0.04 M) of the same substance?
Its Appearance is “Slightly cloudy, thick, stiffer gel”.

And the Appearance ([2]; conc. 1.41%, CaCl2 0.0117 M, ionic strength 0.035 M)?
The Appearance was “Clear, thick, stiffer gel”.

And the Appearance ([2]; conc. 1.41%, MgCl2 0.0117 M, ionic strength 0.035 M)?
The Appearance was “Clear, thick, stiffer gel”.

And the Appearance ([2]; conc. 1.43%, CaCl2 0.01 M, ionic strength 0.03 M)?
The Appearance was “Clear, thick, stiffer gel”.

What about the Appearance ([2]; conc. 1.43%, KCl 0.01 M, ionic strength 0.01 M) of the same substance?
The Appearance was “Clear, thick, stiffer gel”.

What about the Appearance ([2]; conc. 1.43%, MgCl2 0.01 M, ionic strength 0.03 M) of the same substance?
Its Appearance is “Clear, thick, stiffer gel”.

And the Appearance ([2]; conc. 1.43%, NaCl 0.01 M, ionic strength 0.01 M)?
The Appearance was “Clear, thick, stiffer gel”.

And the Appearance ([2]; conc. 1.44%, CaCl2 0.0083 M, ionic strength 0.025 M)?
The Appearance was “Clear, thick, stiffer gel”.

What about the Appearance ([2]; conc. 1.44%, MgCl2 0.0083 M, ionic strength 0.025 M) of the same substance?
Its Appearance is “Clear, thick, stiffer gel”.

And the Appearance ([2]; conc. 1.45%, CaCl2 0.0067 M, ionic strength 0.02 M)?
The Appearance was “Clear, thick, stiffer gel”.

And the Appearance ([2]; conc. 1.45%, MgCl2 0.0067 M, ionic strength 0.02 M)?
The Appearance was “Clear, thick, stiffer gel”.

What about the Appearance ([2]; conc. 1.46%, CaCl2 0.005 M, ionic strength 0.015 M) of the same substance?
The Appearance was “Clear, thick, stiffer gel”.

What about the Appearance ([2]; conc. 1.46%, KCl 0.005 M, ionic strength 0.005 M) of the same substance?
The Appearance was “Clear, thick, stiffer gel”.

And the Appearance ([2]; conc. 1.46%, MgCl2 0.005 M, ionic strength 0.015 M)?
The Appearance was “Clear, thick, stiffer gel”.

What about the Appearance ([2]; conc. 1.46%, NaCl 0.005 M, ionic strength 0.005 M) of the same substance?
The Appearance was “Clear, thick, stiffer gel”.

What about the Appearance ([2]; conc. 1.5%, CaCl2 0 M, ionic strength 0 M) of the same substance?
Its Appearance is “Clear, thick gel”.

And the Appearance ([2]; conc. 1.5%, KCl 0 M, ionic strength 0 M)?
Its Appearance is “Clear, thick gel”.

And the Appearance ([2]; conc. 1.5%, MgCl2 0 M, ionic strength 0 M)?
Its Appearance is “Clear, thick gel”.

And the Appearance ([2]; conc. 1.5%, NaCl 0 M, ionic strength 0 M)?
The Appearance was “Clear, thick gel”.

What about the “salt ionic strength increase that did not change the clear color of the solution (apparent stiffness increased)” value ([2]; depending on different salts, 1.5% peptide solutions) of the same substance?
Its value is 0.025˜0.035 M.

What about the “gelation after saline buffer treatment” value [3] of the same substance?
Its value is “fast gelation”.

What about the Appearance ([4]; 0.1N NaOH 0 μL/mL, conc. 2.5%, pH 1.8) of the same substance?
The Appearance was “Clear, thick gel”.

And the Appearance ([4]; 0.1N NaOH 50 μL/mL, conc. 2.38%, pH 2.1)?
The Appearance was “Clear, thick gel”.

What about the Appearance ([4]; 0.1N NaOH 100 μL/mL, conc. 2.27%, pH 2.2) of the same substance?
Its Appearance is “Clear, thick gel”.

What about the Appearance ([4]; 0.1N NaOH 150 μL/mL, conc. 2.17%, pH 2.7) of the same substance?
Its Appearance is “Clear, thick gel,”.

What about the Appearance ([4]; 0.1N NaOH 200 μL/mL, conc. 2.08%, pH 3.0) of the same substance?
Its Appearance is “Clear, thick gel,”.

What about the Appearance ([4]; 0.1N NaOH 250 μL/mL, conc. 2.0%, pH 3.3) of the same substance?
The Appearance was “Clear, thick gel,”.

And the Appearance ([4]; 0.1N NaOH 275 μL/mL, conc. 1.96%, pH 3.7)?
Its Appearance is “Clear, thick,”.

And the Appearance ([4]; 0.1N NaOH 300 μL/mL, conc. 1.92%, pH 4.0)?
Its Appearance is “Slightly cloudy,”.

And the Appearance ([4]; 0.1N NaOH 350 μL/mL, conc. 1.85%, pH 4.5)?
Its Appearance is “Cloudy, brittle gel”.

What about the Appearance ([4]; 0.1N NaOH 400 μL/mL, conc. 1.79%, pH 5.4) of the same substance?
Its Appearance is “Cloudy, phase-”.

What about the “Peptide solution pH” value ([4]; 0.1N NaOH added in 2.5% solution 0 μL/mL, conc. 2.5%) of the same substance?
Its value is 1.8.

And the “Peptide solution pH” value ([4]; 0.1N NaOH added in 2.5% solution 50 μL/mL, conc. 2.38%)?
The value was 2.1.

What about the “Peptide solution pH” value ([4]; 0.1N NaOH added in 2.5% solution 100 μL/mL, conc. 2.27%) of the same substance?
The value was 2.2.

What about the “Peptide solution pH” value ([4]; 0.1N NaOH added in 2.5% solution 150 μL/mL, conc. 2.17%) of the same substance?
Its value is 2.7.

What about the “Peptide solution pH” value ([4]; 0.1N NaOH added in 2.5% solution 200 μL/mL, conc. 2.08%) of the same substance?
The value was 3.0.

What about the “Peptide solution pH” value ([4]; 0.1N NaOH added in 2.5% solution 250 μL/mL, conc. 2.0%) of the same substance?
Its value is 3.3.

What about the “Peptide solution pH” value ([4]; 0.1N NaOH added in 2.5% solution 275 μL/mL, conc. 1.96%) of the same substance?
The value was 3.7.

What about the “Peptide solution pH” value ([4]; 0.1N NaOH added in 2.5% solution 300 μL/mL, conc. 1.92%) of the same substance?
Its value is 4.0.

What about the “Peptide solution pH” value ([4]; 0.1N NaOH added in 2.5% solution 350 μL/mL, conc. 1.85%) of the same substance?
Its value is 4.5.

And the “Peptide solution pH” value ([4]; 0.1N NaOH added in 2.5% solution 400 μL/mL, conc. 1.79%)?
Its value is 5.4.

What about the Appearance ([4]; pH 7.0) of the same substance?
The Appearance was “Cloudy, phase-”.

— US10245299B2, “Autoassembling peptides for the treatment of pulmonary bulla” (3-D MATRIX, LTD., priority 2014, dated 2019)
